Experimental data taken from article PMC4380410.

T1: CfaRfull-HIS6 (Streptomyces scabies 87-22) (UniProt C9ZEC8)
T1 sequence: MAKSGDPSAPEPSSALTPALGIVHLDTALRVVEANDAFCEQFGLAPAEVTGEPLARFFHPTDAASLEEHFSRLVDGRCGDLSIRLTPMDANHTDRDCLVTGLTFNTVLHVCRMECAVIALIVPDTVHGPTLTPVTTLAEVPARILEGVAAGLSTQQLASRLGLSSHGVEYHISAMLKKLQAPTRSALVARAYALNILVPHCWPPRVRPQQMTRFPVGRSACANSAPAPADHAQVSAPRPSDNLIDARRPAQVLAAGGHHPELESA

B1: P2 control probe (LC14/LC15) (dsDNA)
DNA 1: TGTGGTTCGCGTCCATGGGTGTCAGGCGGATGCTTAAGTC
DNA 2: GACTTAAGCATCCGCCTGACACCCATGGACGCGAACCACA
B2: P1 probe (LC12/LC13) (dsDNA)
DNA 1: CGAATGCGGGGACTAGGGATTCTCCTAGTCGACCTTCGTT
DNA 2: AACGAAGGTCGACTAGGAGAATCCCTAGTCCCCGCATTCG

How the values were obtained:
[1] = target: CfaR^full-HIS6 (Streptomyces scabies); assay: cross-linking; glutaraldehyde (1 μL of 2.3% w/v) added to 80 pmol purified protein in 20 mM sodium phosphate pH 7.5, 20 μL, 5 min at 37°C; stopped with Tris-HCl pH 8.0; SDS-PAGE (12%), Coomassie staining
[2] = target: CfaR^ΔLuxR-HIS6 (Streptomyces scabies); assay: as above
[3] = target: T1, CfaRfull-HIS6 (Streptomyces scabies 87-22); assay: EMSA; conditions: LightShift Chemiluminescent EMSA kit per manufacturer; buffer, salt, pH and temperature not stated (protein stored in 20 mM sodium phosphate, 150 mM NaCl, 20% …)
CfaRfull-HIS6 = CfaRfull-HIS6 (Streptomyces scabies 87-22, UniProt C9ZEC8 1-265); assay: EMSA; 0.1 pmol probe, 2 pmol protein; LightShift Chemiluminescent EMSA kit per manufacturer; buffer, salt, pH and temperature not stated (protein stored in 20 mM sodium phosphate, 150 mM NaCl, 20% glycerol, pH 7.8); conditions: protein: recombinant; tags: C-terminal His6; chain copies: 2; blunt

Molecule | binding [3] | binding result (CfaRfull-HIS6) | further results
CfaR^full-HIS6 (natural protein) |  |  | stoichiometry N [1]: 2
CfaR^ΔLuxR-HIS6 (domain or fragment) |  |  | stoichiometry N [2]: 2
GACCTTCGTTCTGTAGCCCTTGTATGGTCGCATTGCCTCCGCAGGTCGACCCCTTTCGGCACCATAGGAGACCCTCTTGGCGAACATCGAATCGACCATCAAGCACATCCTGGTCGACGATCTCTTCATCACTGTGCCG (double strand) [fragment b] | no binding |  | 
GCACAGGAAGGAGGAGAACCCCTCACCTCGGGCCCTTGGACCCGACACACCCGCAGCGCGTGCGACGGTTCCTGCGCCGGCCGGCCTGACAAACCAGGGCGAGACGCCGCATCTGCGGAACCGGTCGACCCGCAGACGAATCGTGGCCGACGCCAACCCGAATGCGGG (double strand) [fragment c] | no binding |  | 
B1 |  | no binding | 
B2 |  | binds | 
